From US20050070690A1

Assays:
[1] = target: nerve growth factor; test: SPR (BiaCore), TrkIg2 amine-coupled to CM5 chip, NGF passed over at 0.1-100 nM, 1:1 Langmuir model
[2] = target: neurotrophin-4; test: SPR (BiaCore), TrkIg2 amine-coupled to CM5 chip, NT-4 passed over at 1-100 nM, 1:1 Langmuir model
[3] = target: brain derived neurotrophic factor; test: SPR (BiaCore), TrkIg2 amine-coupled to CM5 chip, BDNF passed over at 0.1-25 nM, 1:1 Langmuir model

| Substance | Kd [1] | Kd [2] | Kd [3] |
| --- | --- | --- | --- |
| TrkAIg2.66His (from UniProt P04629) (receptor) | 0.0792 nM | – | – |
| TrkAIg26His (from UniProt P04629-2) (receptor) | 0.0926 nM | – | – |
| TrkBIg26His (from UniProt Q16620) (receptor) | – | 0.26 nM | 0.79 nM |
